Assay results as given in the supplement of paper PMC9112550, “Optimization of the antimicrobial peptide Bac7 by deep mutational scanning” (BMC Biology, 2022).

test system: Escherichia coli TOP10; experiment: shrunken log2 fold change of peptide-encoding DNA abundance (4.5 h post-induction vs induction); higher = less antimicrobial activity (less host growth inhibition); conditions: time post-induction: 4.5 h; library: site-saturation at positions 5, 18, 19, 20
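Also: peptides expressed intracellularly from a pBAD plasmid library in pooled LB shake-flask culture, induced with 0.3% L-arabinose, DNA abundance read by NGS, three biological replicates, DESeq2 with apeglm shrinkage.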

RRIRLRPPRLPRPRPRPEHAPRP and RRIRWRPPRLPRPRPRPDTSPRP are within 0.2 log units of each other in “shrunken log2 fold change” value: -0.00513 for the first, 0.0558 for the second.

Compared with RRIRGRPPRLPRPRPRPKPVPRP, RRIRKRPPRLPRPRPRPQKTPRP is lower in “shrunken log2 fold change” value: 0.985 for the first, 0.167 for the second.

First: RRIRIRPPRLPRPRPRPKHMPRP
Second: RRIRMRPPRLPRPRPRPFRDPRP
The “shrunken log2 fold change” value of the first is lower: -0.451 for the first, 0.00601 for the second.

RRIRERPPRLPRPRPRPICHPRP and RRIRQRPPRLPRPRPRPMMHPRP are within 0.2 log units of each other in “shrunken log2 fold change” value: -0.187 for the first, -0.252 for the second.

First: RRIRRRPPRLPRPRPRPNNIPRP
Second: RRIRFRPPRLPRPRPRPEWFPRP
The “shrunken log2 fold change” value of the first is lower: -0.556 for the first, 0.0431 for the second.

Going from RRIRLRPPRLPRPRPRPLMMPRP to RRIRLRPPRLPRPRPRPRSPPRP, the “shrunken log2 fold change” value rises from -0.164 to 0.803.

Compared with RRIRFRPPRLPRPRPRPPHAPRP, RRIRTRPPRLPRPRPRPHRTPRP is lower in “shrunken log2 fold change” value: 0.491 for the first, -0.615 for the second.

Compared with RRIRERPPRLPRPRPRPDPWPRP, RRIRKRPPRLPRPRPRPMFWPRP is higher in “shrunken log2 fold change” value: -0.12 for the first, 0.173 for the second.

Going from RRIRGRPPRLPRPRPRPGVAPRP to RRIRNRPPRLPRPRPRPAWYPRP, the “shrunken log2 fold change” value falls from 1.53 to -0.178.

RRIRSRPPRLPRPRPRPGKNPRP and RRIRARPPRLPRPRPRPAQIPRP are within 0.2 log units of each other in “shrunken log2 fold change” value: -0.166 for the first, -0.0241 for the second.

RRIRIRPPRLPRPRPRPEIAPRP and RRIRFRPPRLPRPRPRPHVHPRP are within 0.2 log units of each other in “shrunken log2 fold change” value: -0.141 for the first, -0.0448 for the second.

Compared with RRIRHRPPRLPRPRPRPFQFPRP, RRIRQRPPRLPRPRPRPVCIPRP is lower in “shrunken log2 fold change” value: 0.0952 for the first, -0.39 for the second.

First: RRIRKRPPRLPRPRPRPWCCPRP
Second: RRIRIRPPRLPRPRPRPHDTPRP
The “shrunken log2 fold change” value of the first is higher: -0.187 for the first, -0.548 for the second.

First: RRIRNRPPRLPRPRPRPSEVPRP
Second: RRIRLRPPRLPRPRPRPFGTPRP
The “shrunken log2 fold change” value of the first is higher: -0.0684 for the first, -0.424 for the second.

Compared with RRIRWRPPRLPRPRPRPVSIPRP, RRIRPRPPRLPRPRPRPYFFPRP is lower in “shrunken log2 fold change” value: 0.235 for the first, -0.593 for the second.

Going from RRIRDRPPRLPRPRPRPVILPRP to RRIRRRPPRLPRPRPRPCAKPRP, the “shrunken log2 fold change” value rises from -0.146 to 0.164.

RRIRLRPPRLPRPRPRPVISPRP and RRIRWRPPRLPRPRPRPIIWPRP are within 0.2 log units of each other in “shrunken log2 fold change” value: -0.266 for the first, -0.269 for the second.

RRIRMRPPRLPRPRPRPEQEPRP and RRIRDRPPRLPRPRPRPHTYPRP are within 0.2 log units of each other in “shrunken log2 fold change” value: 0.033 for the first, -0.163 for the second.

First: RRIRCRPPRLPRPRPRPKLWPRP
Second: RRIRGRPPRLPRPRPRPPIIPRP
The “shrunken log2 fold change” value of the first is higher: 0.121 for the first, -0.0886 for the second.

Compared with RRIRVRPPRLPRPRPRPRYKPRP, RRIRTRPPRLPRPRPRPSCCPRP is lower in “shrunken log2 fold change” value: -0.131 for the first, -0.341 for the second.

RRIRHRPPRLPRPRPRPLWCPRP and RRIRTRPPRLPRPRPRPQYVPRP are within 0.2 log units of each other in “shrunken log2 fold change” value: -0.22 for the first, -0.336 for the second.

First: RRIRQRPPRLPRPRPRPFNVPRP
Second: RRIRPRPPRLPRPRPRPYGTPRP
The “shrunken log2 fold change” value of the first is higher: -0.375 for the first, -0.732 for the second.

Compared with RRIRDRPPRLPRPRPRPLQTPRP, RRIRNRPPRLPRPRPRPQRIPRP is lower in “shrunken log2 fold change” value: 0.135 for the first, -0.47 for the second.

Compared with RRIRARPPRLPRPRPRPQFLPRP, RRIRWRPPRLPRPRPRPYKPPRP is lower in “shrunken log2 fold change” value: -0.265 for the first, -0.539 for the second.

RRIRIRPPRLPRPRPRPFCAPRP and RRIRNRPPRLPRPRPRPRHEPRP are within 0.2 log units of each other in “shrunken log2 fold change” value: -0.088 for the first, -0.0217 for the second.

RRIRPRPPRLPRPRPRPQIWPRP and RRIRHRPPRLPRPRPRPYEWPRP are within 0.2 log units of each other in “shrunken log2 fold change” value: 0.0101 for the first, -0.0335 for the second.

First: RRIRVRPPRLPRPRPRPRNNPRP
Second: RRIRSRPPRLPRPRPRPIVLPRP
The “shrunken log2 fold change” value of the first is higher: -0.425 for the first, -0.639 for the second.

Compared with RRIRTRPPRLPRPRPRPQYGPRP, RRIRMRPPRLPRPRPRPKRMPRP is higher in “shrunken log2 fold change” value: -0.082 for the first, 1.06 for the second.

RRIRVRPPRLPRPRPRPEETPRP and RRIRTRPPRLPRPRPRPFSQPRP are within 0.2 log units of each other in “shrunken log2 fold change” value: 0.00893 for the first, -0.0652 for the second.

First: RRIRWRPPRLPRPRPRPPSNPRP
Second: RRIRYRPPRLPRPRPRPTIRPRP
The “shrunken log2 fold change” value of the first is higher: 0.133 for the first, -0.336 for the second.

First: RRIRQRPPRLPRPRPRPLDKPRP
Second: RRIRHRPPRLPRPRPRPTYDPRP
The “shrunken log2 fold change” value of the first is higher: 2.19 for the first, -0.0607 for the second.

Compared with RRIRSRPPRLPRPRPRPNRMPRP, RRIRRRPPRLPRPRPRPCDCPRP is lower in “shrunken log2 fold change” value: 0.309 for the first, 0.00422 for the second.

Going from RRIRMRPPRLPRPRPRPNECPRP to RRIRYRPPRLPRPRPRPKPNPRP, the “shrunken log2 fold change” value falls from 0.175 to -0.158.

Compared with RRIRFRPPRLPRPRPRPRTRPRP, RRIRQRPPRLPRPRPRPSCPPRP is lower in “shrunken log2 fold change” value: 0.244 for the first, -0.037 for the second.

RRIRDRPPRLPRPRPRPLADPRP and RRIRMRPPRLPRPRPRPCKTPRP are within 0.2 log units of each other in “shrunken log2 fold change” value: 0.0597 for the first, -0.00146 for the second.

RRIRNRPPRLPRPRPRPSGTPRP and RRIRNRPPRLPRPRPRPFFYPRP are within 0.2 log units of each other in “shrunken log2 fold change” value: -0.217 for the first, -0.242 for the second.

RRIRTRPPRLPRPRPRPIDGPRP and RRIRRRPPRLPRPRPRPANTPRP are within 0.2 log units of each other in “shrunken log2 fold change” value: 0.0685 for the first, 0.0917 for the second.

With RRIRARPPRLPRPRPRPVTEPRP the “shrunken log2 fold change” value was 0.154.
